Here are results for 1 variant from IntAct's records for PubMed 15572661.

B1: Androgen receptor (Homo sapiens), P10275 (parent)
chain: MEVQLGLGRVYPRPPSKTYRGAFQNLFQSVREVIQNPGPRHPEAASAAPPGASLLLLQQQQQQQQQQQQQQQQQQQQQQQETSPRQQQQQQGEDGSPQAHRRGPTGYLVLDEEQQPSQPQSALECHPERGCVPEPGAAVAASKGLPQQLPAPPDEDDSAAPSTLSLLGPTFPGLSSCSADLKDILSEASTMQLLQQQQQEAVSEGSSSGRAREASGAPTSSKDNYLGGTSTISDNAKELCKAVSVSMGLGVEALEHLSPGEQLRGDCMYAPLLGVPPAVRPTPCAPLAECKGSLLDDSAGKSTEDTAEYSPFKGGYTKGLEGESLGCSGSAAAGSSGTLELPSTLSLYKSGALDEAAAYQSRDYYNFPLALAGPPPPPPPPHPHARIKLENPLDYGSAWAAAAAQCRYGDLASLHGAGAAGPGSGSPSAAASSSWHTLFTAEEGQLYGPCGGGGGGGGGGGGGGGGGGGGGGGEAGAVAPYGYTRPPQGLAGQESDFTAPDVWYPGGMVSRVPYPSPTCVKSEMGPWMDSYSGPYGDMRLETARDHVLPIDYYFPPQKTCLICGDEASGCHYGALTCGSCKVFFKRAAEGKQKYLCASRNDCTIDKFRRKNCPSCRLRKCYEAGMTLGARKLKKLGNLKLQEEGEASSTTSPTEETTQKLTVSHIEGYECQPIFLNVLEAIEPGVVCAGHDNNQPDSFAALLSSLNELGERQLVHVVKWAKALPGFRNLHVDDQMAVIQYSWMGLMVFAMGWRSFTNVNSRMLYFAPDLVFNEYRMHKSRMYSQCVRMRHLSQEFGWLQITPQEFLCMKALLLFSIIPVDGLKNQKFFDELRMNYIKELDRIIACKRKNPTSCSRRFYQLTKLLDSVQPIARELHQFTFDLLIKSHMVSVDFPEMMAEIISVQVPKILSGKVKPIYFHTQ

This test covers variants of B1. The following applies: with daxx_human DAXX.
With K388R;K521R, the “effect of a mutation on the interaction” value was “decreasing interaction strength”.
